Reference: US20220127354A1 (Amgen, published 2022)
Changes are numbered by the printed parent chain. In names and notes the source's numbering stands.

T1: Cyno Cadherin-19 (cynomologous monkey (Macaca …, UniProt Q9H159 44-772 (human entry)))
T1 construct: also called cynomologous monkey CDH-19
T1 chain: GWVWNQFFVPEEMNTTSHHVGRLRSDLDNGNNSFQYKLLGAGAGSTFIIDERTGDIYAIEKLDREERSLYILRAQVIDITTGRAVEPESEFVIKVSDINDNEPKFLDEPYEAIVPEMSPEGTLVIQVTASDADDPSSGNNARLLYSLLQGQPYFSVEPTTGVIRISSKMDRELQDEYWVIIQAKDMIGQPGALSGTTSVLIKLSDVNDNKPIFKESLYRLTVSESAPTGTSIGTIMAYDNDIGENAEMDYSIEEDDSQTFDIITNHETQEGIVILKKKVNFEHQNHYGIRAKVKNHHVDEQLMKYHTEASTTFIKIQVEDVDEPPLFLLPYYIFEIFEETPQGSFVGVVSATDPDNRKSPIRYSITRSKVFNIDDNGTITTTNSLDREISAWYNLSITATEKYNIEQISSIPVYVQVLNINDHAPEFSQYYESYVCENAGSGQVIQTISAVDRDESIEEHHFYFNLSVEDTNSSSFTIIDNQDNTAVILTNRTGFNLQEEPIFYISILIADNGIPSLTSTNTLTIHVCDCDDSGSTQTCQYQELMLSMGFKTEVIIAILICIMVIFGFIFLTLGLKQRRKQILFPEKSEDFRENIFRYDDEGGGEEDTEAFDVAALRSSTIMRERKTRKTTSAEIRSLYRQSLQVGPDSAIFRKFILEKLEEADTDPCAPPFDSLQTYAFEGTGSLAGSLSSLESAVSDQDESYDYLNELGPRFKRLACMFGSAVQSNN

B1: hu anti-<huCDH19> 20D3.1 (Ab ID 13878) (antibody, human IgG1, lambda, V domains shown)
VH: QVQLVQSGAEVKKPGASVKVSCKVSGYTFTSYFIHWVRQAPGQGLEWMGIINPISVSTSYAQKFQGRVTMTRDTSTSTVFMELSSLRSEDTAVYYCARGGIQLWLHFDYWGQGTLVTVSS
VL: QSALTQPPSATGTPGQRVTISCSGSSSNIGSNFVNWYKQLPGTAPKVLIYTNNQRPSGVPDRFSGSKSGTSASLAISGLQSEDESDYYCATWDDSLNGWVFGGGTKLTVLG
notes: huIgG1z / huLLC-C2; Bin 2; also called 16H2; 23E7
B2: hu anti-<huCDH19> 19B5.1 (Ab ID 13885) (antibody, human IgG1, lambda, V domains shown)
VH: B1 VH with F107L
VL: QSALTQPPSTTGTPGQRVTISCSGSRSNIGSNFVNWYKQLPGTAPKVLIYTNNQRPSGVPDRFSGSKSGTSASLAISGLQSEDESDYYCATWDDSMNGWVFGGGTKLTVLG
notes: huIgG1z / huLLC-C2; Bin 2
B3: hu anti-<huCDH19> 22D1.1 (Ab ID 13879) (antibody, human IgG1, lambda, V domains shown)
VH: B1 VH with K19R, F107L
VL: B2 VL with T10A, R26S
notes: huIgG1z / huLLC-C2; Bin 2
B4: hu anti-<huCDH19> 4B10 (1-471)(R17G,D61E,D72E) VH::huIgG1z + 4B10 (1-236)(H45Q,A90T) VL::huKLC (Ab ID 14055) (antibody, V domains shown)
VH: QVQLVESGGGVVQPGGSLRLSCAASGFTFSSYDMHWVRQAPGKGLEWVAVISYEGTNEYYAESVKGRFTISRDTSKNTLYLQMNSLRAEDTAVYYCARERYFDWSFDYWGQGTLVSVSS
VL: EIVLTQSPGTLSLSPGERATLSCRASQSVSNTYLAWYQQRPGQAPRLLIYGASSRATGIPDRFSGSGSGTDFTLTISSLEPEDFAVYYCQQYSNSWTFGQGTKVEIKR
notes: Engineered variant of 4B10; the entries already carry the changes; Bin 4
B5: hu anti-<huCDH19> 25G10.1 (Ab ID 13883) (antibody, human IgG1, kappa, V domains shown)
VH: QVQLQESGPGLVKPSETLSLTCTVSGGSISGYYWSWIRQPPGKGLEWIGYIYYIGSTNYNPSLKSRVTMSVDTSKNQFSLKLSSVTAADTAVYYCARDGSSGWYRWFDPWGQGTLVTVSS
VL: EIVLTQSPGTLSLSPGERATLSCRASQSVSSSYLAWYQQKPGQAPRLLIFGASSRATGIPDRFSGSGSGTDFTLTISRLEPEDFAVYHCQQYGNSPLTFGGGTKVEIKR
notes: huIgG1z / huKLC; Bin 3
B6: hu anti-<huCDH19> 16C1.1 (Ab ID 13875) (antibody, human IgG1, kappa, V domains shown)
VH: B5 VH with V71I, K81T, V85L, Y94F
VL: B5 VL with R78G
notes: huIgG1z / huKLC; Bin 3
B7: anti-CDH19 antibody 23A10 (Ab ID 13884) (antibody, human IgG1, lambda, V domains shown)
VH: QVQLVESGGGVVQPGRSLRLSCAASGFTFSRYGIHWVRQAPGKGLEWVAVIWYDGSNKYYADSVKGRFTISRDNSKNTLYLLMNSLRAEDSAVYYCARRAGIPGTTGYYYGMDVWGQGTTVTVSS
VL: SYELTQPPSVSVSPGQTASITCSGDRLGEKYVCWYQQKPGQSPILVIYQDNKWPSGIPERFSGSNSGNTATLTISGTQAMDEADYYCQAWDSSTVVFGGGTKLTVLG
notes: Bin 4
B8: hu anti-<huCDH19> 26D1.1 (1-469)(R27G,G82R) VH::huIgG1z + 26D1.1 (1-235)(H1Q,S7P) VL::huLLC-C2 (Ab ID 14088) (antibody, V domains shown)
VH: QVQLVQSGAEVKKPGASVKVSCKASGYTFTSYYMSWVRQAPGQGLEWMGIIHPSGGDTTYAQKFQGRVTMTRDTSTSTVYMELSSLRSEDTAVYYCARGGIKLWLHFDYWGQGTLVTVSS
VL: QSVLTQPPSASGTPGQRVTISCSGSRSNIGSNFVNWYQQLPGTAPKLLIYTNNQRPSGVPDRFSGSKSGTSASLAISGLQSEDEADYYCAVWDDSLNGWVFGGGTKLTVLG
notes: Engineered variant of 26D1; the entries already carry the changes; Bin 2
B9: hu anti-<huCDH19> 25F8.1 VH::huIgG1z + 25F8.1 (1-235)(K45Q,S102A) VL::huLLC-C2 (Ab ID 14094) (antibody, V domains shown)
VH: B1 VH with V24A, F33Y, I54S, S55G, V56G, S59R
VL: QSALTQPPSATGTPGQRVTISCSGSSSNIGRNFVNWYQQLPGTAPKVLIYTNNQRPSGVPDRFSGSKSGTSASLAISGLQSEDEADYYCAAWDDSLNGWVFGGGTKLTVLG
notes: Engineered variant of 25F8; the entries already carry the changes; Bin 2
B10: hu anti-<huCDH19> 25F8.1 (Ab ID 13880) (antibody, human IgG1, lambda, V domains shown)
VH: B1 VH with V24A, F33Y, I54S, S55G, V56G, S59R
VL: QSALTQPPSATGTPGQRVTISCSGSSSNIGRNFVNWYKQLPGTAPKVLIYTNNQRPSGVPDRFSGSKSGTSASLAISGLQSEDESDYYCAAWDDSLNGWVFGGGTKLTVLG
notes: huIgG1z / huLLC-C2; Bin 2
B11: hu anti-<huCDH19> 4A9 VH::huIgG1z + 4A9 (1-239)(F47L) VL::huLLC-C1 (Ab ID 14056) (antibody, V domains shown)
VH: QVQLQESGPGLVKPSETLSLTCTVSGGSISGYYWSWIRQPPGKGLEWFAYFSYSGSTNYNPSLKSRVTLSVDTSKNQFSLKLSSVTAADTAVYYCARNWAFHFDFWGQGTLVTVSS
VL: QSVLTQPPSVSGAPGQRVTISCTGSSSNIGTGYAVHWYQQLPGTAPKLLIYGNNNRPSGVPDRFSGSKSGTSASLAITGLQAEDEADYYCQSYDSRLSGWVFGGGTKLTVLG
notes: Engineered variant of 4A9; the entries already carry the changes; Bin 1
B12: hu anti-<huCDH19> 4F7 (Ab ID 13591) (antibody, human IgG1, lambda, V domains shown)
VH: B11 VH with G31S, Y33S, F48I, A49G, F51I, S52Y, L69I, V71L, F105Y
VL: B11 VL with A34D, Y51H, N54S, R96S, K107R
notes: huIgG1z / huLLC-C1; Bin 1
B13: hu anti-<huCDH19> 4A9 (1-468)(F55I,A56G) VH::huIgG1z + 4A9 (1-239)(F47L) VL::huLLC-C1 (Ab ID 14057) (antibody, V domains shown)
VH: B11 VH with F48I, A49G
VL: B11 VL
notes: as for B11
B14: hu anti-<huCDH19> 22G10.1 (Ab ID 13877) (antibody, human IgG1, kappa, V domains shown)
VH: EVQLLESGGGLVQPGGSLRLSCAASGFTFSSYAMNWVRQAPGKGLEWVSTISGGGANTYYADSVKGRFTISSDNSKSTLYLQMNSLRAADTAVYHCAKGGMGGYYYGMDVWGQGTTVTVSS
VL: EIVMTQSPVTLSLSLGERATLSCRASQSISSNLAWFQQKPGQAPRLLIYGAFTRATGIPARVSGSGSGTEFTLTISSLQSEDFAVYYCQQYNYWPLTFGGGTKVEIKR
notes: huIgG1z / huKLC; Bin 3

Tests used:
Cyno Cadherin-19 = biological target: T1, Cyno Cadherin-19; assay: FACS, recombinant cynomologous CDH-19
Human Cadherin-19 = biological target: T2, Human Cadherin-19 (human, UniProt Q9H159 44-772); assay: FACS, endogenous CDH-19 on CHL-1 and Colo699 tumor cells
T2 construct: also called CDH19; huCDH19
Experimental: FACS binding assays were performed to evaluate the binding of the anti-Cadherin-19 receptor specific antibodies to endogenous Cadherin-19 receptor expressed on the CHL-1 tumor cell lines.
FACs assays were performed by incubating hybridoma supernatants with 10,000 to 25,000 cells in PBS/2% Fetal bovine serum/2 mM Calcium Chloride at 4° C. for one hour followed by two washes with PBS/2% Fetal bovine serum/2 mM Calcium Chloride. Cells were then treated with florochrome-labeled secondary antibodies at 4° C. followed by one wash. The cells were resuspended in 50 μl of PBS/2% FBS and antibody binding was analyzed using a FACSCalibur™ instrument.

[1] = biological target: huCDH19(44-772) with Flag tag (construct A, Hu EC1-5) (human, UniProt Q9H159 44-772); assay: flow cytometry, transfected 293T cells
Text: (§1) The experiment included assaying the anti-CDH19 antibodies against mouse Cadherin19 to determine suitability for binning on these human/mouse chimeras.

[2] = biological target: T3, huCDH19(44-249)::muCDH19(248-770) with Flag tag (construct C, Hu EC1-2) (human/mouse chimera); assay: flow cytometry, transfected 293T cells
T3 construct: leader left out; the entry starts at residue 44; also called C137896
Text: as §1

[3] = biological target: T4, huCDH19(44-141)::muCDH19(140-770) with Flag tag (construct B, Hu EC1) (human/mouse chimera); assay: flow cytometry, transfected 293T cells
T4 construct: leader left out; the entry starts at residue 44; also called C137897
Text: as §1

Binder | binding result (Cyno Cadherin-19) | binding result (Human Cadherin-19) | binding result [1] | binding result [2] | binding result [3]
B1 | binds | binds | – | – | –
B2 | binds | binds | – | – | –
B3 | binds | binds | – | – | –
B4 | – | – | binds | – | –
B5 | – | binds | – | – | –
B6 | – | binds | – | – | –
B7 | binds | binds | – | – | –
B8 | – | – | binds | binds | binds
B9 | – | – | binds | binds | binds
B10 | binds | binds | binds | binds | binds
B11 | – | – | binds | binds | binds
B12 | binds | binds | – | – | –
B13 | – | – | binds | binds | binds
B14 | binds | binds | – | – | –
